From the array DNA melting data of Ke et al.

Assay: melting temperature; melt of duplexes
Conditions: sodium 0.0675 M; strand 1 µM

Substance | Tm [°C]
CGACGTGCCCCATGTGCTG+CAGCACATGGGGCACGTCG (((((((((((((((((((+))))))))))))))))))) | 67.7
CGACGTGCCGCATGTGCTG+CAGCACATGTGGCACGTCG (((((((((.(((((((((+))))))))).))))))))) | 62.9
CGACGTGCGTCATGTGCTG+CAGCACATGGCGCACGTCG (((((((((.(((((((((+))))))))).))))))))) | 63.5
CGACGTGCACCATGTGCTG+CAGCACATCGGGCACGTCG ((((((((.(.((((((((+)))))))).).)))))))) | 49.4
CGACGTGCAAGATGTGCTG+CAGCACATCCCGCACGTCG ((((((((..(((((((((+)))))))))..)))))))) | 52.9
CGACGTGCAAGATGTGCTG+CAGCACATCGTGCACGTCG (((((((((.(((((((((+))))))))).))))))))) | 57.4
CGACGTGCAAGATGTGCTG+CAGCACATTCGGCACGTCG ((((((((...((((((((+))))))))...)))))))) | 51.3
CGACGTGCACCATGTGCTG+CAGCACATTACGCACGTCG ((((((((...((((((((+))))))))...)))))))) | 42.4
CGACGTGCGCTATGTGCTG+CAGCACATAGCGCACGTCG (((((((((((((((((((+))))))))))))))))))) | 66.4
CGACGTGCATAATGTGCTG+CAGCACATAGTGCACGTCG (((((((((..((((((((+))))))))..))))))))) | 48.7
CGACGTGCTGAATGTGCTG+CAGCACATCGGGCACGTCG ((((((((...((((((((+))))))))...)))))))) | 50.9
CGACGTGCGCCATGTGCTG+CAGCACATCGCGCACGTCG ((((((((((.((((((((+)))))))).)))))))))) | 58.3
CGACGTGCGTCATGTGCTG+CAGCACATCGAGCACGTCG ((((((((...((((((((+))))))))...)))))))) | 52.3
CGACGTGCTTTATGTGCTG+CAGCACATGGGGCACGTCG ((((((((...((((((((+))))))))...)))))))) | 51
CGACGTGCGGGATGTGCTG+CAGCACATTGAGCACGTCG ((((((((...((((((((+))))))))...)))))))) | 55.3
CGACGTGCGTCATGTGCTG+CAGCACATCCAGCACGTCG ((((((((...((((((((+))))))))...)))))))) | 50.7
CGACGTGCGCAATGTGCTG+CAGCACATGTTGCACGTCG ((((((((...((((((((+))))))))...)))))))) | 51.5
CGACGTGCAGTATGTGCTG+CAGCACATGGAGCACGTCG ((((((((...((((((((+))))))))...)))))))) | 50.6
CGACGTGCTCCATGTGCTG+CAGCACATCGGGCACGTCG ((((((((.(.((((((((+)))))))).).)))))))) | 51.2
CGACGTGCATAATGTGCTG+CAGCACATACAGCACGTCG ((((((((...((((((((+))))))))...)))))))) | 48.2
CGACGTGCGGAATGTGCTG+CAGCACATAAGGCACGTCG ((((((((...((((((((+))))))))...)))))))) | 51.5
CGACGTGCCCTATGTGCTG+CAGCACATTTGGCACGTCG (((((((((..((((((((+))))))))..))))))))) | 54.1
CGACGTGCGGGATGTGCTG+CAGCACATGAGGCACGTCG ((((((((...((((((((+))))))))...)))))))) | 51.9
CGACGTGCTCTATGTGCTG+CAGCACATAAAGCACGTCG (((((((((.(((((((((+))))))))).))))))))) | 54

Substance | Tm [°C]
CGACGTGCCCCATGTGCTG+CAGCACATCCGGCACGTCG (((((((((..((((((((+))))))))..))))))))) | 51.4
CGACGTGCGTCATGTGCTG+CAGCACATGAAGCACGTCG ((((((((.((((((((((+)))))))))).)))))))) | 59.4
CGACGTGCAACATGTGCTG+CAGCACATCGCGCACGTCG ((((((((...((((((((+))))))))...)))))))) | 47.7
CGACGTGCCCTATGTGCTG+CAGCACATCAGGCACGTCG (((((((((..((((((((+))))))))..))))))))) | 53.8
CGACGTGCTGGATGTGCTG+CAGCACATTCTGCACGTCG ((((((((.(.((((((((+)))))))).).)))))))) | 55.6
CGACGTGCGTTATGTGCTG+CAGCACATGAAGCACGTCG ((((((((.(.((((((((+)))))))).).)))))))) | 54.8
CGACGTGCATTATGTGCTG+CAGCACATTACGCACGTCG ((((((((.(.((((((((+)))))))).).)))))))) | 49.3
CGACGTGCGCTATGTGCTG+CAGCACATGTCGCACGTCG (((((((((..((((((((+))))))))..))))))))) | 54.8
CGACGTGCAACATGTGCTG+CAGCACATCTGGCACGTCG ((((((((.(.((((((((+)))))))).).)))))))) | 48.9
CGACGTGCCCCATGTGCTG+CAGCACATTCAGCACGTCG ((((((((...((((((((+))))))))...)))))))) | 47.7
CGACGTGCAACATGTGCTG+CAGCACATAACGCACGTCG ((((((((...((((((((+))))))))...)))))))) | 48.2
CGACGTGCTGTATGTGCTG+CAGCACATCACGCACGTCG ((((((((...((((((((+))))))))...)))))))) | 50.7
CGACGTGCCGAATGTGCTG+CAGCACATAAGGCACGTCG (((((((((..((((((((+))))))))..))))))))) | 58
CGACGTGCCGTATGTGCTG+CAGCACATCCAGCACGTCG ((((((((.(.((((((((+)))))))).).)))))))) | 49.8
CGACGTGCTCGATGTGCTG+CAGCACATAGGGCACGTCG ((((((((.(.((((((((+)))))))).).)))))))) | 55.4
CGACGTGCACTATGTGCTG+CAGCACATGTCGCACGTCG ((((((((...((((((((+))))))))...)))))))) | 46.4
CGACGTGCCCTATGTGCTG+CAGCACATAAAGCACGTCG ((((((((..(((((((((+)))))))))..)))))))) | 50
CGACGTGCCATATGTGCTG+CAGCACATAACGCACGTCG ((((((((..(((((((((+)))))))))..)))))))) | 49.1
CGACGTGCTGTATGTGCTG+CAGCACATATAGCACGTCG (((((((((.(((((((((+))))))))).))))))))) | 57
CGACGTGCTGAATGTGCTG+CAGCACATATCGCACGTCG ((((((((...((((((((+))))))))...)))))))) | 50.2
CGACGTGCACTATGTGCTG+CAGCACATCTAGCACGTCG ((((((((...((((((((+))))))))...)))))))) | 42.4
CGACGTGCTTGATGTGCTG+CAGCACATACTGCACGTCG ((((((((...((((((((+))))))))...)))))))) | 50.4
CGACGTGCCAGATGTGCTG+CAGCACATCTAGCACGTCG ((((((((.((((((((((+)))))))))).)))))))) | 56.8
CGACGTGCAGGATGTGCTG+CAGCACATCCGGCACGTCG ((((((((.((((((((((+)))))))))).)))))))) | 62.2

Substance | Tm [°C]
CGACGTGCGTAATGTGCTG+CAGCACATAGAGCACGTCG ((((((((...((((((((+))))))))...)))))))) | 54.4
CGACGTGCCGTATGTGCTG+CAGCACATGTTGCACGTCG ((((((((...((((((((+))))))))...)))))))) | 48.3
CGACGTGCACGATGTGCTG+CAGCACATACGGCACGTCG ((((((((...((((((((+))))))))...)))))))) | 48.2
CGACGTGCAGCATGTGCTG+CAGCACATCATGCACGTCG (((((((((..((((((((+))))))))..))))))))) | 49.5
CGACGTGCTTCATGTGCTG+CAGCACATGCAGCACGTCG (((((((((.(((((((((+))))))))).))))))))) | 56.9
CGACGTGCTTTATGTGCTG+CAGCACATGGAGCACGTCG (((((((((..((((((((+))))))))..))))))))) | 54.2
CGACGTGCACCATGTGCTG+CAGCACATGGTGCACGTCG (((((((((((((((((((+))))))))))))))))))) | 65.2
CGACGTGCGCCATGTGCTG+CAGCACATTCAGCACGTCG ((((((((...((((((((+))))))))...)))))))) | 49.8
CGACGTGCCTTATGTGCTG+CAGCACATCTCGCACGTCG ((((((((...((((((((+))))))))...)))))))) | 46.6
CGACGTGCGCAATGTGCTG+CAGCACATCACGCACGTCG (((((((((..((((((((+))))))))..))))))))) | 54
CGACGTGCGCCATGTGCTG+CAGCACATGGTGCACGTCG ((((((((.((((((((((+)))))))))).)))))))) | 62.5
CGACGTGCCATATGTGCTG+CAGCACATTCCGCACGTCG ((((((((...((((((((+))))))))...)))))))) | 48.1
CGACGTGCCTGATGTGCTG+CAGCACATGAGGCACGTCG ((((((((((.((((((((+)))))))).)))))))))) | 58.5
CGACGTGCACAATGTGCTG+CAGCACATCGCGCACGTCG ((((((((.(.((((((((+)))))))).).)))))))) | 48.5
CGACGTGCGACATGTGCTG+CAGCACATGCTGCACGTCG ((((((((..(((((((((+)))))))))..)))))))) | 54.7
CGACGTGCACCATGTGCTG+CAGCACATAGCGCACGTCG ((((((((.(.((((((((+)))))))).).)))))))) | 46.1
CGACGTGCAATATGTGCTG+CAGCACATCCAGCACGTCG ((((((((...((((((((+))))))))...)))))))) | 48.1
CGACGTGCGGGATGTGCTG+CAGCACATCTAGCACGTCG ((((((((..(((((((((+)))))))))..)))))))) | 57.8
CGACGTGCTAGATGTGCTG+CAGCACATCACGCACGTCG ((((((((..(((((((((+)))))))))..)))))))) | 54.3
CGACGTGCAGGATGTGCTG+CAGCACATAATGCACGTCG (((((((((..((((((((+))))))))..))))))))) | 55.2
CGACGTGCGTTATGTGCTG+CAGCACATTGTGCACGTCG ((((((((...((((((((+))))))))...)))))))) | 47.2
CGACGTGCTTAATGTGCTG+CAGCACATCAAGCACGTCG ((((((((((.((((((((+)))))))).)))))))))) | 55
CGACGTGCTAGATGTGCTG+CAGCACATGCAGCACGTCG (((((((((..((((((((+))))))))..))))))))) | 53
CGACGTGCATAATGTGCTG+CAGCACATTATGCACGTCG (((((((((((((((((((+))))))))))))))))))) | 61.8
